Source: patent US20220218785A1 (ALPINE IMMUNE SCIENCES, published 2022)
Substitutions are numbered along the chain they refer to. Names and notes keep the numbering of the source.

B1: ICOSL ECD Truncation #7 with N52H/N57Y/Q100R/F172S and F83S, Fc fusion (Fc fusion)
chain: DTQEKEVRAMVGSDVELSCACPEGSRFDLNDVYVYWQTSESKTVVTYHIPQHSSLEYVDSRYRNRALMSPAGMLRGDFSLRLSNVTPQDEQKFHCLVLSRSLGFQEVLSVEVTLHVAANFSVPVVSAPHSPSQDELTFTCTSINGYPRPNVYWINKTDNSLLDQALQNDTVSLNMRGLYDVVSVLRIARTPSVNIGCCIENGGGGSGGGGSEPKSSDKTHTCPPCPAPEAEGAPSVFLFPPKPKDTLMISRTPEVTCVVVDVSHEDPEVKFNWYVDGVEVHNAKTKPREEQYNSTYRVVSVLTVLHQDWLNGKEYKCKVSNKALPAPIEKTISKAKGQPREPQVYTLPPSREEMTKNQVSLTCLVKGFYPSDIAVEWESNGQPENNYKTTPPVLDSDGSFFLYSKLTVDKSRWQQGNVFSCSVMHEALHNHYTQKSLSLSPG
notes: Made in CHO cells; F83S is an additional mutation found later in the clone
B2: ICOSL ECD Truncation #6 with N52H/N57Y/Q100R/F172S, Fc fusion (Fc fusion)
chain: DTQEKEVRAMVGSDVELSCACPEGSRFDLNDVYVYWQTSESKTVVTYHIPQHSSLEYVDSRYRNRALMSPAGMLRGDFSLRLFNVTPQDEQKFHCLVLSRSLGFQEVLSVEVTLHVAANFSVPVVSAPHSPSQDELTFTCTSINGYPRPNVYWINKTDNSLLDQALQNDTVSLNMRGLYDVVSVLRIARTPSVNIGCCIENVLLGGGGSGGGGSEPKSSDKTHTCPPCPAPEAEGAPSVFLFPPKPKDTLMISRTPEVTCVVVDVSHEDPEVKFNWYVDGVEVHNAKTKPREEQYNSTYRVVSVLTVLHQDWLNGKEYKCKVSNKALPAPIEKTISKAKGQPREPQVYTLPPSREEMTKNQVSLTCLVKGFYPSDIAVEWESNGQPENNYKTTPPVLDSDGSFFLYSKLTVDKSRWQQGNVFSCSVMHEALHNHYTQKSLSLSPG
notes: Made in CHO cells
B3: ICOSL ECD Truncation #4 with N52H/N57Y/Q100R/F172S and E200G, Fc fusion (Fc fusion)
chain: DTQEKEVRAMVGSDVELSCACPEGSRFDLNDVYVYWQTSESKTVVTYHIPQHSSLEYVDSRYRNRALMSPAGMLRGDFSLRLFNVTPQDEQKFHCLVLSRSLGFQEVLSVEVTLHVAANFSVPVVSAPHSPSQDELTFTCTSINGYPRPNVYWINKTDNSLLDQALQNDTVSLNMRGLYDVVSVLRIARTPSVNIGCCIGNVLLQQNGGGGSGGGGSEPKSSDKTHTCPPCPAPEAEGAPSVFLFPPKPKDTLMISRTPEVTCVVVDVSHEDPEVKFNWYVDGVEVHNAKTKPREEQYNSTYRVVSVLTVLHQDWLNGKEYKCKVSNKALPAPIEKTISKAKGQPREPQVYTLPPSREEMTKNQVSLTCLVKGFYPSDIAVEWESNGQPENNYKTTPPVLDSDGSFFLYSKLTVDKSRWQQGNVFSCSVMHEALHNHYTQKSLSLSPG
notes: Made in CHO cells; E200G is an additional mutation found later in the clone
B4: ICOSL ECD Truncation #8 with N207G/L208G and N52H/N57Y/Q100R/F172S, Fc fusion (Fc fusion)
chain: DTQEKEVRAMVGSDVELSCACPEGSRFDLNDVYVYWQTSESKTVVTYHIPQHSSLEYVDSRYRNRALMSPAGMLRGDFSLRLFNVTPQDEQKFHCLVLSRSLGFQEVLSVEVTLHVAANFSVPVVSAPHSPSQDELTFTCTSINGYPRPNVYWINKTDNSLLDQALQNDTVSLNMRGLYDVVSVLRIARTPSVNIGCCIENVLLQQGGTGGGGSGGGGSEPKSSDKTHTCPPCPAPEAEGAPSVFLFPPKPKDTLMISRTPEVTCVVVDVSHEDPEVKFNWYVDGVEVHNAKTKPREEQYNSTYRVVSVLTVLHQDWLNGKEYKCKVSNKALPAPIEKTISKAKGQPREPQVYTLPPSREEMTKNQVSLTCLVKGFYPSDIAVEWESNGQPENNYKTTPPVLDSDGSFFLYSKLTVDKSRWQQGNVFSCSVMHEALHNHYTQKSLSLSPG
notes: Made in CHO cells
B5: ICOSL IgV with N52H/N57Y/Q100R and H48R/S54P, Fc fusion (Fc fusion)
chain: DTQEKEVRAMVGSDVELSCACPEGSRFDLNDVYVYWQTSESKTVVTYRIPQHSPLEYVDSRYRNRALMSPAGMLRGDFSLRLFNVTPQDEQKFHCLVLSRSLGFQEVLSVEVTLHVAANFSVGGGGSGGGGSEPKSSDKTHTCPPCPAPEAEGAPSVFLFPPKPKDTLMISRTPEVTCVVVDVSHEDPEVKFNWYVDGVEVHNAKTKPREEQYNSTYRVVSVLTVLHQDWLNGKEYKCKVSNKALPAPIEKTISKAKGQPREPQVYTLPPSREEMTKNQVSLTCLVKGFYPSDIAVEWESNGQPENNYKTTPPVLDSDGSFFLYSKLTVDKSRWQQGNVFSCSVMHEALHNHYTQKSLSLSPG
notes: Made in CHO cells. '554P' is read as S54P; also called ICOSL IgV with N52H/N57Y/Q100R and H48R/554P
B6: ICOSL ECD Truncation #7 with N52H/N57Y/Q100R/C198R and E90K/E111G (Fc fusion, not shown: a dimerising Fc or GST)
chain: DTQEKEVRAMVGSDVELSCACPEGSRFDLNDVYVYWQTSESKTVVTYHIPQHSSLEYVDSRYRNRALMSPAGMLRGDFSLRLFNVTPQDKQKFHCLVLSRSLGFQEVLSVGVTLHVAANFSVPVVSAPHSPSQDELTFTCTSINGYPRPNVYWINKTDNSLLDQALQNDTVFLNMRGLYDVVSVLRIARTPSVNIGCRIEN
notes: Made in CHO cells
B7: ICOSL ECD Truncation #6 with N52H/N57Y/Q100R/C198R (Fc fusion, not shown: a dimerising Fc or GST)
chain: DTQEKEVRAMVGSDVELSCACPEGSRFDLNDVYVYWQTSESKTVVTYHIPQHSSLEYVDSRYRNRALMSPAGMLRGDFSLRLFNVTPQDEQKFHCLVLSRSLGFQEVLSVEVTLHVAANFSVPVVSAPHSPSQDELTFTCTSINGYPRPNVYWINKTDNSLLDQALQNDTVFLNMRGLYDVVSVLRIARTPSVNIGCRIENVLL
notes: Made in CHO cells
B8: ICOSL ECD Truncation #5 with N52H/N57Y/Q100R/C198R (Fc fusion, not shown: a dimerising Fc or GST)
chain: DTQEKEVRAMVGSDVELSCACPEGSRFDLNDVYVYWQTSESKTVVTYHIPQHSSLEYVDSRYRNRALMSPAGMLRGDFSLRLFNVTPQDEQKFHCLVLSRSLGFQEVLSVEVTLHVAANFSVPVVSAPHSPSQDELTFTCTSINGYPRPNVYWINKTDNSLLDQALQNDTVFLNMRGLYDVVSVLRIARTPSVNIGCRIENVLLQQ
notes: Made in CHO cells
B9: ICOSL ECD with N52H/N57Y/Q100R/C198R (Table 18) (Fc fusion, not shown: a dimerising Fc or GST)
chain: DTQEKEVRAMVGSDVELSCACPEGSRFDLNDVYVYWQTSESKTVVTYHIPQHSSLEYVDSRYRNRALMSPAGMLRGDFSLRLFNVTPQDEQKFHCLVLSRSLGFQEVLSVEVTLHVAANFSVPVVSAPHSPSQDELTFTCTSINGYPRPNVYWINKTDNSLLDQALQNDTVFLNMRGLYDVVSVLRIARTPSVNIGCRIENVLLQQNLTVGSQTGNDIGERDKITENPVSTGEKNAAT
notes: Made in CHO cells; May be the same construct as m37
B10: variant ICOSL ECD-Fc N52H/N57Y/Q100R/F172S, AAA linker, Fc C220S/E233P/L234V/L235A/G236del/S267K (SEQ ID NO: 44) (Fc fusion)
chain: DTQEKEVRAMVGSDVELSCACPEGSRFDLNDVYVYWQTSESKTVVTYHIPQHSSLEYVDSRYRNRALMSPAGMLRGDFSLRLFNVTPQDEQKFHCLVLSRSLGFQEVLSVEVTLHVAANFSVPVVSAPHSPSQDELTFTCTSINGYPRPNVYWINKTDNSLLDQALQNDTVSLNMRGLYDVVSVLRIARTPSVNIGCCIENVLLQQNLTVGSQTGNDIGERDKITENPVSTGEKNAATAAAEPKSSDKTHTCPPCPAPPVAGPSVFLFPPKPKDTLMISRTPEVTCVVVDVKHEDPEVKFNWYVDGVEVHNAKTKPREEQYNSTYRVVSVLTVLHQDWLNGKEYKCKVSNKALPAPIEKTISKAKGQPREPQVYTLPPSREEMTKNQVSLTCLVKGFYPSDIAVEWESNGQPENNYKTTPPVLDSDGSFFLYSKLTVDKSRWQQGNVFSCSVMHEALHNHYTQKSLSLSPGK
notes: Made in 293 cells; Fc or allotypes thereof
B11: variant ICOSL ECD-Fc N52H/N57Y/Q100P, AAA linker, Fc C220S/E233P/L234V/L235A/G236del/S267K (SEQ ID NO: 44) (Fc fusion)
chain: B10 chain with R100P, S172F
notes: as for B10
B12: variant ICOSL ECD-Fc N52H/N57Y/Q100P, AAA linker, Fc C220S/L234A/L235E/G237A (SEQ ID NO: 40) (Fc fusion)
chain: DTQEKEVRAMVGSDVELSCACPEGSRFDLNDVYVYWQTSESKTVVTYHIPQHSSLEYVDSRYRNRALMSPAGMLRGDFSLRLFNVTPQDEQKFHCLVLSPSLGFQEVLSVEVTLHVAANFSVPVVSAPHSPSQDELTFTCTSINGYPRPNVYWINKTDNSLLDQALQNDTVFLNMRGLYDVVSVLRIARTPSVNIGCCIENVLLQQNLTVGSQTGNDIGERDKITENPVSTGEKNAATAAAEPKSSDKTHTCPPCPAPEAEGAPSVFLFPPKPKDTLMISRTPEVTCVVVDVSHEDPEVKFNWYVDGVEVHNAKTKPREEQYNSTYRVVSVLTVLHQDWLNGKEYKCKVSNKALPAPIEKTISKAKGQPREPQVYTLPPSREEMTKNQVSLTCLVKGFYPSDIAVEWESNGQPENNYKTTPPVLDSDGSFFLYSKLTVDKSRWQQGNVFSCSVMHEALHNHYTQKSLSLSPGK
notes: as for B10
B13: variant ICOSL ECD-Fc N52H/N57Y/Q100R/F172S, AAA linker, Fc C220S/L234A/L235E/G237A (SEQ ID NO: 40) (Fc fusion)
chain: B12 chain with P100R, F172S
notes: as for B10

Each binder was assayed against T1, human CD28 (human, UniProt P10747 19-220) (assay: flow cytometry, cells with human CD28; protein from CHO).
T1 construct: whole, on cells

Binder | MFI (ΔWT) [fold vs WT] | MFI [MFI]
B1 | 51.1 | 
B2 | 52.8 | 
B3 | 46.6 | 
B4 | 62.4 | 
B5 | 43.6 | 
B6 | 22.5 | 38900
B7 | 49 | 84600
B8 | 50 | 86300
B9 | 34.3 | 59200

Each binder was assayed against T2, human ICOS (human, UniProt Q9Y6W8 21-199) (assay: flow cytometry, Expi293 cells with human ICOS).
T2 construct: whole, on cells
T2 sequence (looked up): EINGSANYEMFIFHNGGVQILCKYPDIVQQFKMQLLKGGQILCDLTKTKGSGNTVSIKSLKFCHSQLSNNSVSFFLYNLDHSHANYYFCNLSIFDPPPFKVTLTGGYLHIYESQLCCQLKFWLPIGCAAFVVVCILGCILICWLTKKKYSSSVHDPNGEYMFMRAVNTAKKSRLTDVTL
Method: Binding studies were carried out on transfected HEK293 cells generated to express the full-length mammalian (human) surface ligands, CD28, ICOS or CTLA-4, using a transient transfection system (Life Technologies, USA). As a control, binding to mock (non-transfected) cells also was assessed. For staining by flow cytometry, 200,000 cells of appropriate transient transfection or negative control (mock) were plated in 96 well round bottom plates, and, then incubated in staining buffer (PBS, phosphate buffered saline; 1% BSA, bovine serum albumin; and 0.1% sodium azide) for 20 minutes to block non-specific binding. Cells were resuspended in staining buffer containing 100 nM to 1 nM variant immunomodulatory protein in 50 μL. Mean Fluorescence Intensity (MFI) was calculated for each transfectant and negative parental line with Cell Quest Pro software (Becton Dickinson, USA) or a Hypercyt flow cytometer (Intellicyte, USA).
(§1) Expi293 cells transfected with cognate binding partners, human CD28, ICOS and CTLA4, were used as target cells in binding studies.

Binder | MFI (ΔWT) [fold vs WT]
B10 | 1.3
B11 | 1.3
B12 | 1.2
B13 | 1.3

The binders below were run against T3, human CTLA-4 (human, UniProt P16410 36-223) (assay: flow cytometry, Expi293 cells with human CTLA-4).
T3 construct: whole, on cells
T3 sequence (P16410 36-223): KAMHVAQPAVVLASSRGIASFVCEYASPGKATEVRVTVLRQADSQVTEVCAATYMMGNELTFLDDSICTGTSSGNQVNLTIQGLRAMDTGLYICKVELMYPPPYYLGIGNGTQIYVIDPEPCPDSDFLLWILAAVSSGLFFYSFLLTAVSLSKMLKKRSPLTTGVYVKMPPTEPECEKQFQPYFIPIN
Text: as §1

Binder | MFI (ΔWT) [fold vs WT]
B10 | 20.5
B11 | 33.5
B12 | 18.2
B13 | 20.6

The binders below were run against T3, human CTLA-4 (assay: flow cytometry, cells with human CTLA-4; protein from CHO).

Binder | MFI (ΔWT) [fold vs WT] | MFI [MFI]
B1 | 27.3 | 
B2 | 31.6 | 
B3 | 42.3 | 
B4 | 40.7 | 
B5 | 42.4 | 
B6 | 11 | 83700
B7 | 31.1 | 236000
B8 | 28.5 | 216000
B9 | 17.5 | 133000

The binders below were run against T1, human CD28 (assay: flow cytometry, Expi293 cells with human CD28).
Text: as §1

Binder | MFI (ΔWT) [fold vs WT]
B10 | 10.9
B11 | 13.3
B12 | 13.1
B13 | 12.5

These binders were tested against T2, human ICOS (assay: flow cytometry, cells with human ICOS; protein from CHO).

Binder | MFI (ΔWT) [fold vs WT] | MFI [MFI]
B1 | 1.1 | 
B2 | 0.9 | 
B3 | 1.1 | 
B4 | 1.3 | 
B5 | 1.4 | 
B6 | 0.5 | 54600
B7 | 0.9 | 91400
B8 | 1.1 | 110000
B9 | 1.4 | 139000
